Experimental data reported in patent US20130005646A1 (Novo Nordisk, published 2013).
Starred links: 1 amine or outer side, 2 acyl side, 3 side chain; linkers in the order of their positions; H or OH if unused. Positions of bridges follow the written chain, without caps; N, C: chain ends. Groups on a side chain read outwards from the residue. No end group written: not given here. *: point of attachment. C20 diacid = O=C(O)CCCCCCCCCCCCCCCCCCC(=O)*; C18 diacid = O=C(O)CCCCCCCCCCCCCCCCC(=O)*; γGlu = O=C(O)[C@H](CCC(=O)[*:2])N[*:1]; AEEA = NCCOCCOCC(=O)O

B1: N-epsilon17-[2-(2-{2-[2-(2-{2-[(S)-4-Carboxy-4-(17-carboxyheptadecanoylamino)butyrylamino]ethoxy}ethoxy)acetylamino]ethoxy}ethoxy)acetyl]-[Glu14,Lys17]-pramlint … (peptide)
peptide: KCNTATCATQRLAEFLK([AEEA-AEEA-γGlu-C18 diacid])HSSNNFGPILPPTNVGSNTY-NH2
modifications: disulfide 2-7; N-terminus assumed
SMILES: CC[C@H](C)[C@H](NC(=O)[C@@H]1CCCN1C(=O)CNC(=O)[C@H](Cc1ccccc1)NC(=O)[C@H](CC(N)=O)NC(=O)[C@H](CC(N)=O)NC(=O)[C@H](CO)NC(=O)[C@H](CO)NC(=O)[C@H](Cc1c[nH]cn1)NC(=O)[C@H](CCCCNC(=O)COCCOCCNC(=O)COCCOCCNC(=O)CC[C@H](NC(=O)CCCCCCCCCCCCCCCCC(=O)O)C(=O)O)NC(=O)[C@H](CC(C)C)NC(=O)[C@H](Cc1ccccc1)NC(=O)[C@H](CCC(=O)O)NC(=O)[C@H](C)NC(=O)[C@H](CC(C)C)NC(=O)[C@H](CCCNC(=N)N)NC(=O)[C@H](CCC(N)=O)NC(=O)[C@@H](NC(=O)[C@H](C)NC(=O)[C@@H]1CSSC[C@H](NC(=O)[C@@H](N)CCCCN)C(=O)N[C@@H](CC(N)=O)C(=O)N[C@@H]([C@@H](C)O)C(=O)N[C@@H](C)C(=O)N[C@@H]([C@@H](C)O)C(=O)N1)[C@@H](C)O)C(=O)N[C@@H](CC(C)C)C(=O)N1CCC[C@H]1C(=O)N1CCC[C@H]1C(=O)N[C@H](C(=O)N[C@@H](CC(N)=O)C(=O)N[C@H](C(=O)NCC(=O)N[C@@H](CO)C(=O)N[C@@H](CC(N)=O)C(=O)N[C@H](C(=O)N[C@@H](Cc1ccc(O)cc1)C(N)=O)[C@@H](C)O)C(C)C)[C@@H](C)O
B2: N-alpha-[(S)-4-Carboxy-4-(19-carboxynonadecanoylamino)butyryl]-[Glu14,His17,Arg18,His35]-pramlintide (peptide)
peptide: {C20 diacid-γGlu}-KCNTATCATQRLAEFLHRSSNNFGPILPPTNVGSHTY-NH2
modifications: disulfide 2-7
SMILES: CC[C@H](C)[C@H](NC(=O)[C@@H]1CCCN1C(=O)CNC(=O)[C@H](Cc1ccccc1)NC(=O)[C@H](CC(N)=O)NC(=O)[C@H](CC(N)=O)NC(=O)[C@H](CO)NC(=O)[C@H](CO)NC(=O)[C@H](CCCNC(=N)N)NC(=O)[C@H](Cc1c[nH]cn1)NC(=O)[C@H](CC(C)C)NC(=O)[C@H](Cc1ccccc1)NC(=O)[C@H](CCC(=O)O)NC(=O)[C@H](C)NC(=O)[C@H](CC(C)C)NC(=O)[C@H](CCCNC(=N)N)NC(=O)[C@H](CCC(N)=O)NC(=O)[C@@H](NC(=O)[C@H](C)NC(=O)[C@@H]1CSSC[C@H](NC(=O)[C@H](CCCCN)NC(=O)CC[C@H](NC(=O)CCCCCCCCCCCCCCCCCCC(=O)O)C(=O)O)C(=O)N[C@@H](CC(N)=O)C(=O)N[C@@H]([C@@H](C)O)C(=O)N[C@@H](C)C(=O)N[C@@H]([C@@H](C)O)C(=O)N1)[C@@H](C)O)C(=O)N[C@@H](CC(C)C)C(=O)N1CCC[C@H]1C(=O)N1CCC[C@H]1C(=O)N[C@H](C(=O)N[C@@H](CC(N)=O)C(=O)N[C@H](C(=O)NCC(=O)N[C@@H](CO)C(=O)N[C@@H](Cc1c[nH]cn1)C(=O)N[C@H](C(=O)N[C@@H](Cc1ccc(O)cc1)C(N)=O)[C@@H](C)O)C(C)C)[C@@H](C)O
B3: N-alpha-[(S)-4-Carboxy-4-(19-carboxynonadecanoylamino)butyryl]-[His1,Glu14,His17,Arg18,His35]-pramlintide (peptide)
peptide: {C20 diacid-γGlu}-HCNTATCATQRLAEFLHRSSNNFGPILPPTNVGSHTY-NH2
modifications: disulfide 2-7
SMILES: CC[C@H](C)[C@H](NC(=O)[C@@H]1CCCN1C(=O)CNC(=O)[C@H](Cc1ccccc1)NC(=O)[C@H](CC(N)=O)NC(=O)[C@H](CC(N)=O)NC(=O)[C@H](CO)NC(=O)[C@H](CO)NC(=O)[C@H](CCCNC(=N)N)NC(=O)[C@H](Cc1c[nH]cn1)NC(=O)[C@H](CC(C)C)NC(=O)[C@H](Cc1ccccc1)NC(=O)[C@H](CCC(=O)O)NC(=O)[C@H](C)NC(=O)[C@H](CC(C)C)NC(=O)[C@H](CCCNC(=N)N)NC(=O)[C@H](CCC(N)=O)NC(=O)[C@@H](NC(=O)[C@H](C)NC(=O)[C@@H]1CSSC[C@H](NC(=O)[C@H](Cc2c[nH]cn2)NC(=O)CC[C@H](NC(=O)CCCCCCCCCCCCCCCCCCC(=O)O)C(=O)O)C(=O)N[C@@H](CC(N)=O)C(=O)N[C@@H]([C@@H](C)O)C(=O)N[C@@H](C)C(=O)N[C@@H]([C@@H](C)O)C(=O)N1)[C@@H](C)O)C(=O)N[C@@H](CC(C)C)C(=O)N1CCC[C@H]1C(=O)N1CCC[C@H]1C(=O)N[C@H](C(=O)N[C@@H](CC(N)=O)C(=O)N[C@H](C(=O)NCC(=O)N[C@@H](CO)C(=O)N[C@@H](Cc1c[nH]cn1)C(=O)N[C@H](C(=O)N[C@@H](Cc1ccc(O)cc1)C(N)=O)[C@@H](C)O)C(C)C)[C@@H](C)O
B4: N-alpha-[(S)-4-Carboxy-4-(19-carboxynonadecanoylamino)butyryl]-[des1,Glu14,His17,His35]-pramlintide (peptide)
peptide: {C20 diacid-γGlu}-CNTATCATQRLAEFLHHSSNNFGPILPPTNVGSHTY-NH2
modifications: disulfide 1-6
SMILES: CC[C@H](C)[C@H](NC(=O)[C@@H]1CCCN1C(=O)CNC(=O)[C@H](Cc1ccccc1)NC(=O)[C@H](CC(N)=O)NC(=O)[C@H](CC(N)=O)NC(=O)[C@H](CO)NC(=O)[C@H](CO)NC(=O)[C@H](Cc1c[nH]cn1)NC(=O)[C@H](Cc1c[nH]cn1)NC(=O)[C@H](CC(C)C)NC(=O)[C@H](Cc1ccccc1)NC(=O)[C@H](CCC(=O)O)NC(=O)[C@H](C)NC(=O)[C@H](CC(C)C)NC(=O)[C@H](CCCNC(=N)N)NC(=O)[C@H](CCC(N)=O)NC(=O)[C@@H](NC(=O)[C@H](C)NC(=O)[C@@H]1CSSC[C@H](NC(=O)CC[C@H](NC(=O)CCCCCCCCCCCCCCCCCCC(=O)O)C(=O)O)C(=O)N[C@@H](CC(N)=O)C(=O)N[C@@H]([C@@H](C)O)C(=O)N[C@@H](C)C(=O)N[C@@H]([C@@H](C)O)C(=O)N1)[C@@H](C)O)C(=O)N[C@@H](CC(C)C)C(=O)N1CCC[C@H]1C(=O)N1CCC[C@H]1C(=O)N[C@H](C(=O)N[C@@H](CC(N)=O)C(=O)N[C@H](C(=O)NCC(=O)N[C@@H](CO)C(=O)N[C@@H](Cc1c[nH]cn1)C(=O)N[C@H](C(=O)N[C@@H](Cc1ccc(O)cc1)C(N)=O)[C@@H](C)O)C(C)C)[C@@H](C)O
B5: N-alpha-[(S)-4-Carboxy-4-(19-carboxynonadecanoylamino)butyryl]-Gly-[Glu14,His17,His35]-pramlintide (peptide)
peptide: {C20 diacid-γGlu}-GKCNTATCATQRLAEFLHHSSNNFGPILPPTNVGSHTY-NH2
modifications: disulfide 3-8
SMILES: CC[C@H](C)[C@H](NC(=O)[C@@H]1CCCN1C(=O)CNC(=O)[C@H](Cc1ccccc1)NC(=O)[C@H](CC(N)=O)NC(=O)[C@H](CC(N)=O)NC(=O)[C@H](CO)NC(=O)[C@H](CO)NC(=O)[C@H](Cc1c[nH]cn1)NC(=O)[C@H](Cc1c[nH]cn1)NC(=O)[C@H](CC(C)C)NC(=O)[C@H](Cc1ccccc1)NC(=O)[C@H](CCC(=O)O)NC(=O)[C@H](C)NC(=O)[C@H](CC(C)C)NC(=O)[C@H](CCCNC(=N)N)NC(=O)[C@H](CCC(N)=O)NC(=O)[C@@H](NC(=O)[C@H](C)NC(=O)[C@@H]1CSSC[C@H](NC(=O)[C@H](CCCCN)NC(=O)CNC(=O)CC[C@H](NC(=O)CCCCCCCCCCCCCCCCCCC(=O)O)C(=O)O)C(=O)N[C@@H](CC(N)=O)C(=O)N[C@@H]([C@@H](C)O)C(=O)N[C@@H](C)C(=O)N[C@@H]([C@@H](C)O)C(=O)N1)[C@@H](C)O)C(=O)N[C@@H](CC(C)C)C(=O)N1CCC[C@H]1C(=O)N1CCC[C@H]1C(=O)N[C@H](C(=O)N[C@@H](CC(N)=O)C(=O)N[C@H](C(=O)NCC(=O)N[C@@H](CO)C(=O)N[C@@H](Cc1c[nH]cn1)C(=O)N[C@H](C(=O)N[C@@H](Cc1ccc(O)cc1)C(N)=O)[C@@H](C)O)C(C)C)[C@@H](C)O
B6: N-alpha-[2-(2-{2-[2-(2-{2-[(S)-4-Carboxy-4-(17-carboxyheptadecanoylamino)butyrylamino]ethoxy}ethoxy)acetylamino]ethoxy}ethoxy)acetyl]-[Glu1,Glu14,His17,Pro37]-p … (peptide)
peptide: {C18 diacid-γGlu-AEEA-AEEA}-ECNTATCATQRLAEFLHHSSNNFGPILPPTNVGSNTP-NH2
modifications: disulfide 2-7
SMILES: CC[C@H](C)[C@H](NC(=O)[C@@H]1CCCN1C(=O)CNC(=O)[C@H](Cc1ccccc1)NC(=O)[C@H](CC(N)=O)NC(=O)[C@H](CC(N)=O)NC(=O)[C@H](CO)NC(=O)[C@H](CO)NC(=O)[C@H](Cc1c[nH]cn1)NC(=O)[C@H](Cc1c[nH]cn1)NC(=O)[C@H](CC(C)C)NC(=O)[C@H](Cc1ccccc1)NC(=O)[C@H](CCC(=O)O)NC(=O)[C@H](C)NC(=O)[C@H](CC(C)C)NC(=O)[C@H](CCCNC(=N)N)NC(=O)[C@H](CCC(N)=O)NC(=O)[C@@H](NC(=O)[C@H](C)NC(=O)[C@@H]1CSSC[C@H](NC(=O)[C@H](CCC(=O)O)NC(=O)COCCOCCNC(=O)COCCOCCNC(=O)CC[C@H](NC(=O)CCCCCCCCCCCCCCCCC(=O)O)C(=O)O)C(=O)N[C@@H](CC(N)=O)C(=O)N[C@@H]([C@@H](C)O)C(=O)N[C@@H](C)C(=O)N[C@@H]([C@@H](C)O)C(=O)N1)[C@@H](C)O)C(=O)N[C@@H](CC(C)C)C(=O)N1CCC[C@H]1C(=O)N1CCC[C@H]1C(=O)N[C@H](C(=O)N[C@@H](CC(N)=O)C(=O)N[C@H](C(=O)NCC(=O)N[C@@H](CO)C(=O)N[C@@H](CC(N)=O)C(=O)N[C@H](C(=O)N1CCC[C@H]1C(N)=O)[C@@H](C)O)C(C)C)[C@@H](C)O

Tests used:
[1] = target: T1, human amylin 3(a) receptor (human calcitonin receptor + RAMP-3) (human, UniProt P30988 25-474; O60896 24-148); assay: cell-based or functional assay
T1 sequence (looked up) 1: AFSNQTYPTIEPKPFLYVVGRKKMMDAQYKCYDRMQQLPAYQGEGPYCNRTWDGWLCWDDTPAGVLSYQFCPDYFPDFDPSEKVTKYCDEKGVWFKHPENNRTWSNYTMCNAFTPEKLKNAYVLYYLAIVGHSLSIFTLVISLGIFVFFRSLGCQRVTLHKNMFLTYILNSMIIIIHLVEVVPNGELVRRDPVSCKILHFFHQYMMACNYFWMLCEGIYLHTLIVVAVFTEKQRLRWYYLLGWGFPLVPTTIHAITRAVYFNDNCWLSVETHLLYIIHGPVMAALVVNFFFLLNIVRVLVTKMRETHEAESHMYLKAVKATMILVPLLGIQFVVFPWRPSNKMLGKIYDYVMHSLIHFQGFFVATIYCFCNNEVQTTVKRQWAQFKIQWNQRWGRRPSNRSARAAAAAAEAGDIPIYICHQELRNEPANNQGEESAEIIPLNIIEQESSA
T1 sequence (looked up) 2: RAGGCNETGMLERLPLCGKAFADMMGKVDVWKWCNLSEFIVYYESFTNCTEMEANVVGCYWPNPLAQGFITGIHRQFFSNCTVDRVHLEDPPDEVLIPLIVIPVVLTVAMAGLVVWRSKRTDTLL

[2] = target: T2, human calcitonin (a) receptor (human, UniProt P30988 25-474); assay: cell-based or functional assay
T2 sequence (looked up): T1 sequence (looked up) 1

Binder	Amylin receptor human EC50 [1] [nM]	CTa receptor human EC50 [2] [nM]
B1	0.456	4.3
B2	0.0685	0.0965
B3	0.066	0.11
B4	0.365	0.286
B5	0.0955	0.0705
B6	0.108	0.288
